# Measured values published in the nanobody polyreactivity screen of Harvey et al. (2022).
# Assay: yeast display, Sf9 membrane polyspecificity reagent, FACS + sequencing; frameworks hold sequencing errors
# In short: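 After 36–48 hours of galactose induction, yeast (Saccharomyces cerevisiae BJ5465) displaying a synthetic nanobody library were stained at 4 °C for 1 hour with 10% biotinylated, detergent-solubilized Sf9 membrane reagent. Streptavidin microbeads enriched the stained cells before FACS sorting into low and high (top ~1%) gates on anti-HA and streptavidin fluorescence. Each clone's polyreactivity label reflects its gate of origin.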
row,Sequence,polyreactivity (PSR sort gate)
1,QVQLVESGGGLVQAGGSLRLSCAASGFIFVRYAMGWYRQAPGKERELVAAITKGGGRTYYADSVKGRFTISRDNAKNTVYLQMNSLKPEDTAVYYCATAGAHGRERDYWGQGTQVTVSS,high polyreactivity
2,QVQLVESGGGLVQAGGSLRLSCAASGFIFVSKAMGWSRQAPGKERELVAAITTGGSTNYADSVKGRFTISRDNAKYTVYLLMNSLKPEDTAVYYCAADGRYSTYIYLHDYWGQGTQVTVSS,low polyreactivity
3,QVQLVESGGGLVQAGGSLRLSCAASGFIFVSYAMGWDRQAPGKERELVATITWGGGSTYYADSVKGRFTISRDNAKNTVYLQMNSLKPVDTAVYYCAADYPYSPIFDRYVEYEYWGQGTQVTVSS,low polyreactivity
4,QVQLVESGGGLVQAGGSLRLSCAASGFIFVWYAMGWYRQAPGKEREMVAAISFSGSSTYYADSVKGRFTITRDNAKNTVYLQMNSLKPEDTAVYYCAKRIAKYIPRYKFDYWGQGTQVTVSS,high polyreactivity
5,QVQLVESGGGLVQAGGSLRLSCAASGFIFVYNAMGWYRQAPGKERELVAVISSGGSTYYADSVKGRFTISRDNAKNTVYLQMNSLKPEDTAVYYCNKRRYDIKDEYDYWGQGTQVTVSS,low polyreactivity
6,QVQLVESGGGLVQAGGSLRLSCAASGFIFWDNTMGWYRQAPGKERELVAAISGGDGTYYADSVKGRFTISRDNAKNTVYLQLNSLKPEDTAVYYCNAATAEVKLYGKYDYWGQGTQVTVSS,low polyreactivity
7,QVQLVESGGGLVQAGGSLRLSCAASGFIFWDYAMGWNRQAPRKERELVAAISDSGGDTYYADSVKGRFTISRDNAKNTVYLQMNSLIPEDTAVYYCAADVVLWVFRGQQYDYWGQGTQVTVSS,low polyreactivity
8,QVQLVESGGGLVQAGGSLRLSCAASGFIFWINAMGWYRQAPGKERELVAAITKNGGTTYYADSVKGRFTISRDNAKNTVYLLMNSLKPEDTAVYYCAAGGIGGDQEVEGPMNYWGQGTQVTVSS,low polyreactivity
9,QVQLVESGGGLVQAGGSLRLSCAASGFIFWLNAMGWYRQAPGKERELVAAISIGGRTNYADSVKGRFTISRDNAKNTVYLQMNSLKPEDTAVYYCNKDYRSVYKGRGFDYWGQGTQVTVSS,low polyreactivity
10,QVQLVESGGGLVQAGGSLRLSCAASGFIFWLYAMGWYRQAPGKEREVVAGITRGGGSTYYADSVKGRFTISRDNAKNTVYLQMNSLKPEDTAVYYCAADAWSSYLDRPFDYWGQGTQVTVSS,high polyreactivity
11,QVQLVESGGGLVQAGGSLRLSCAASGFIFWLYPMGWYRQAPGKERELVAAISSSGGNTYYADSVKGRFTISRDNAKNTVDLQMISLKPEDTAVYYCAASYSYGRTYSGYYWGQGTQVTVSS,low polyreactivity
12,QVQLVESGGGLVQAGGSLRLSCAASGFIFWRNAMGWYRQAPGKEREFVARISSSGGSTYYADSVKGRFTISRDNAKNTVYLQMNSLKPEDTAVYYCNADVWYRYGYFRYDYWGQGTQVTVSS,high polyreactivity
13,QVQLVESGGGLVQAGGSLRLSCAASGFIFWSYAMGWYRQAPGKERELVAAITRRGGSTYYADSVKGRFTISRDNAKNTVYLQMNSLKPEDTAVYYCNARRTYNGPVYPYYSGVNYWGQGTQVTVSS,high polyreactivity
14,QVQLVESGGGLVQAGGSLRLSCAASGFIFWSYAMVWYRQAPGKERELVAAISHGGSTNYADSVKGRFTISRDNSKNTVYLQMNSLKPEDTAVYYCAKDELYIPGVWPYYEYDYWGQGTQVTVSS,low polyreactivity
15,QVQLVESGGGLVQAGGSLRLSCAASGFIFWTYAMGWYRQAPGKERELVAAITGGGGTTYYADSVKGRFTISRDTAKNTVYLQMNSLKPEDTAVYYCAAKQYRSRSGGYWGQGTQVTVSS,high polyreactivity
16,QVQLVESGGGLVQAGGSLRLSCAASGFIFWVYAMGWYIQAPGKERELVAAITSGGGSTYYADSVKGRFTISRDNAKNTVYIQMNSLKPDDTAVYYCATRIRTVAYNYWGQGTQVTVSS,high polyreactivity
17,QVQLVESGGGLVQAGGSLRLSCAASGFIFWWYNMGWYRQAPGKERELVAAISGSGGSTYYADSVKGRFTISRDNAKNTVYLQMNSLKPEHTAVYYCAALFGTGQFYYRYDYWGQGTQVTVSS,high polyreactivity
18,QVQLVESGGGLVQAGGSLRLSCAASGFIFWYNAKGWYRQAPGKERELVAAISSGGSTHYADSVKGRFTISRDNAKNTVYLLMNSLKPEDTAVYYCNTDGYHSNRLDDYDYWRQGTQVTVSS,low polyreactivity
19,QVQLVESGGGLVQAGGSLRLSCAASGFIFWYNAMGWYRQAPGKERELVAVISTSGTITYYADSVKGRFTISRDNAKNTVYLQMNSLKPEDTAVYYCAARYYQRANGFGYWGQGTQVTVSS,low polyreactivity
20,QVQLVESGGGLVQAGGSLRLSCAASGFIFWYYALGWYRQAPGKERELVAAISARDGSTYYADSVKGRFTISRDNAKNTVYLQMNSLKPEDTAVYYCNAVQRYPKFRMDYWGQGTQVTVSS,low polyreactivity
21,QVQLVESGGGLVQAGGSLRLSCAASGFIFWYYGMGWYRQAPGKERELVAAINWSGTSTNYADSVKGRFTISRDNAKNTVYLQMNSLKPEDTAVYYCAAEYWYTYSWGQGTQVTVLS,low polyreactivity
